{"source": "paper PMC3769929", "target": "hAgo1 (Homo sapiens, UniProt Q9UL18 1-857)", "experiment": "X-ray crystallography"}
{"binder": "UGAGGUAGUAGGUUGUAUAGUU (ssRNA, 5' phosphate)", "note": "[let-7 22mer guide]", "values": [{"measurement": "binding result", "value": "binds"}]}
